T1: Human LAG-3 protein (Cat#LA3-5222, Acrobiosystems) (human, UniProt P18627 23-450)
T1 construct: Bought protein; also called recombinant human LAG-3; LAG3 recombinant protein
T1 sequence: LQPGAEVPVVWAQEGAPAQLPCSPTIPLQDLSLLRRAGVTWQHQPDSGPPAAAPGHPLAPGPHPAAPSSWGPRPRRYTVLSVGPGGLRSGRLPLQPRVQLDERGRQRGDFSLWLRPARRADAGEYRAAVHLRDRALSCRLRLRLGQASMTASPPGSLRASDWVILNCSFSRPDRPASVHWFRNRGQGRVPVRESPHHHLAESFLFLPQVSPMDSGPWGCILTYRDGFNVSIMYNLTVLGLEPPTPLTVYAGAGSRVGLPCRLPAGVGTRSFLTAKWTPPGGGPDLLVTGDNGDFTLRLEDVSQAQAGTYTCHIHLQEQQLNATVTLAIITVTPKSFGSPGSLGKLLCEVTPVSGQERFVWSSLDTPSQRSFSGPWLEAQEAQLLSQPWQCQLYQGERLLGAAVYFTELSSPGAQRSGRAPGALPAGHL

T2: Mouse LAG-3 (Acrobiosystems) (mouse, UniProt Q61790 24-442, limits assumed)
T2 construct: Bought protein; also called mouse LAG-3 recombinant protein
T2 sequence (looked up): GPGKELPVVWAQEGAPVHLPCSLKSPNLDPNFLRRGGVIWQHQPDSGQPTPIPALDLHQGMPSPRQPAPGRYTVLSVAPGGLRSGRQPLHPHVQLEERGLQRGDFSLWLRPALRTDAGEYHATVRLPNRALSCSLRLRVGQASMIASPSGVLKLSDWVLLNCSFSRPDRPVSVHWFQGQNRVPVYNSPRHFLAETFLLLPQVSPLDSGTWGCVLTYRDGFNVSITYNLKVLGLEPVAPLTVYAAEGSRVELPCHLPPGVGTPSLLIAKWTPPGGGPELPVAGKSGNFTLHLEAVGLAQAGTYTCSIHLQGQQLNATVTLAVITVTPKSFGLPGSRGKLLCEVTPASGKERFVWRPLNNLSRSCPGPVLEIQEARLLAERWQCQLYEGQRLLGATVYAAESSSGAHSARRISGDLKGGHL

T3: recombinant rhesus monkey LAG-3 protein (Amino acids 1-450 of XM_001108923.3 fused to human IgG1 Fc domain) (rhesus monkey; human, UniProt P18627 23-450)
T3 construct: not shown: human IgG1 Fc domain
T3 chain: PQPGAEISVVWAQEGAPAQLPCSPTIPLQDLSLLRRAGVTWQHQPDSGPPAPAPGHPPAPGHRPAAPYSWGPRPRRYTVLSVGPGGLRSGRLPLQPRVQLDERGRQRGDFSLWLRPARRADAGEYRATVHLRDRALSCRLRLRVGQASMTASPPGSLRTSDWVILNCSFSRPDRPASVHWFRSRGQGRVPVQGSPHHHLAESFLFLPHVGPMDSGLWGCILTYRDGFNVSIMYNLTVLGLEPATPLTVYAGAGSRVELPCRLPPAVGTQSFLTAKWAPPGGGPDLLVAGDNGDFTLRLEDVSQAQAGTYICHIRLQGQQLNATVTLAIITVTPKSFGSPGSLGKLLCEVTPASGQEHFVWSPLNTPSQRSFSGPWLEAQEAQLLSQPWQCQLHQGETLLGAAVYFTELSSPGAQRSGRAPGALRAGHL

T4: Recombinant LAG-3 domain 1-2 (Amino acid 1-262) fused to human IgG1 Fc domain (human, UniProt P18627 23-262)
T4 construct: also called domain 1-2 of human LAG-3; not shown: human IgG1 Fc domain
T4 sequence: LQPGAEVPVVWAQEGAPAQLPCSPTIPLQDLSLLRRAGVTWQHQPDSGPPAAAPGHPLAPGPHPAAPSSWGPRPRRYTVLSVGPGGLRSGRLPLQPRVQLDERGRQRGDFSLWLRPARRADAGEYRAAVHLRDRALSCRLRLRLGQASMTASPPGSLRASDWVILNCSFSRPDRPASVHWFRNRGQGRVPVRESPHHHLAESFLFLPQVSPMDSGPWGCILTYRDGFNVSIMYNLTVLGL

T5: LAG-3 fusion protein comprising human LAG-3 extracellular domain fused to mouse Fc (SinoBiological, … (human; mouse, UniProt P18627 23-450)
T5 construct: Bought fusion protein; not shown: mouse Fc
T5 sequence: T1 sequence

B1: clone 6# as single chain Fv displayed on phage (scFv)
scFv: QVQLVQSGGGVVQPGRSLRLPCAASGFTFSSYGMHWVRQAPGKGLEWVAAISYDGSNKYYADSVKGRFTISRDNSKNTLYLQMNSLRAEDTAVYYCAREGSYYLEGIDYWGQGTLVTVSSSGGSTITSYNVYYTKLSSSGTQSVLTQPPSVSEAPRQRVTISCSGSSSNIGDNAVNWYQQLPGKAPTLLIYYDDLLPSGVPDRFSGSKSGTSASLAISGLQSEDEAEYYCAAWDDSLKGYVFGTGTKLTVLG
B2: clone 8# as single chain Fv displayed on phage (scFv)
scFv: QVQLQESGGGVVRPGGSLRLSCAASGFTFDDYGMSWVRQAPGKGLEWVSGINWSGGSTYYADSVKGRSTISRDNSKNTLYLQMNSLRAEDTAVYYCATGGYWGQGTLVTVSSSGGSTITSYNVYYTKLSSSGTSYELTQPPSVSVSPGQTASITCSGDKLGDKYTSWYQQKPGQSPLLVIYQSTKRPSGIPERFSGSNSGDTATLTISGTQPMDEADYYCQAWDSSTAVFGGGTKLTVLG
B3: anti-LAG-3 antibody 2# (antibody, V domains shown)
VH: QVQLQESGGGVVRPGGSLRLSCAASGFTFDDYGMSWVRQAPGKGLEWVSGINWSGGSTYYADSVKGRSTISRDNSKNTLYLQMNSLRAEDTAVYYCATGGYWGQGTLVTVSS
VL: not shown
notes: elsewhere IgG4 is preferred; also called Clone 2#; clone #2
B4: anti-LAG-3 antibody 8# (antibody, human IgG4 S228P, lambda, V domains shown)
VH: B3 VH
VL: SYELTQPPSVSVSPGQTASITCSGDKLGDKYTSWYQQKPGQSPLLVIYQSTKRPSGIPERFSGSNSGDTATLTISGTQPMDEADYYCQAWDSSTAVFGGGTKLTVLG
notes: also called Clone 8#; Clone 8
B5: anti-LAG-3 antibody 13# (antibody, human IgG4 S228P, lambda, V domains shown)
VH: B3 VH
VL: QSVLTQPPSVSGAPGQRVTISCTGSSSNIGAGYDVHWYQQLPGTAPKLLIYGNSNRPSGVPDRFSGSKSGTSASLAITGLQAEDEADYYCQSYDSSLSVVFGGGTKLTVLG
notes: The VH is the same as that of clone 8; also called Clone 13#; Clone 13
B6: anti-LAG-3 antibody 6# (antibody, human IgG4 S228P, lambda, V domains shown)
VH: QVQLVQSGGGVVQPGRSLRLPCAASGFTFSSYGMHWVRQAPGKGLEWVAAISYDGSNKYYADSVKGRFTISRDNSKNTLYLQMNSLRAEDTAVYYCAREGSYYLEGIDYWGQGTLVTVSS
VL: QSVLTQPPSVSEAPRQRVTISCSGSSSNIGDNAVNWYQQLPGKAPTLLIYYDDLLPSGVPDRFSGSKSGTSASLAISGLQSEDEAEYYCAAWDDSLKGYVFGTGTKLTVLG
notes: also called Clone 6#; Clone 6

What was measured:
[1] = target: T1, Human LAG-3 protein (Cat#LA3-5222, …); experiment: phage ELISA on coated LAG3
[2] = target: T6, human CD4 recombinant protein (Sino Biological) (human, UniProt P01730 26-390, limits assumed); experiment: ELISA, human CD4 recombinant protein immobilized
T6 construct: Bought protein

[3] = target: T2, Mouse LAG-3 (Acrobiosystems); experiment: ELISA, mouse LAG-3 recombinant protein immobilized
[4] = target: T3, recombinant rhesus monkey LAG-3 protein …; experiment: BLI ForteBio Octet RED 96, biotin labeled antibody on streptavidin sensor, antigen 3.125-100 nM, 1:1 fit
[5] = target: T1, Human LAG-3 protein (Cat#LA3-5222, …); experiment: as above
[6] = target: cynomolgus monkey LAG-3 protein (Cat#LA3-C52A0, Acrobiosystems) (cynomolgus monkey); experiment: as above
[7] = target: T1, Human LAG-3 protein (Cat#LA3-5222, …); experiment: SPR Biacore T200, antibody captured on anti-human IgG (Fc), human LAG-3 injected 6.25-200 nM, 1:1 Langmuir fit
[8] = target: T1, Human LAG-3 protein (Cat#LA3-5222, …); experiment: ELISA, human LAG-3 recombinant protein immobilized, serially diluted antibody, anti-human IgG-HRP, OD450-620
[9] = target: T4, Recombinant LAG-3 domain 1-2 (Amino …); experiment: ELISA, human LAG-3 domain 1-2 Fc fusion immobilized, serially diluted antibody, anti-human F(ab')2-HRP, OD450-620
[10] = target: T1, Human LAG-3 protein (Cat#LA3-5222, …); experiment: ELISA blocking assay: human LAG-3 immobilized, antibody mixed with biotin labeled LSECtin, streptavidin-HRP, OD450-620
[11] = target: T5, LAG-3 fusion protein comprising human …; experiment: flow cytometry blocking assay: antibody premixed with hLAG-3-mFc, binding of hLAG-3-mFc to MHC class II on Daudi cells read as MFI

Binder	binding result [1]	binding result [2]	binding result [3]	Kd [4]	koff [4]	kon [4]	Kd [5]	koff [5]	kon [5]	Kd [6]	koff [6]	kon [6]	Kd [7]	koff [7]	kon [7]	EC50 [8]	EC50 [9]	IC50 [10]	IC50 [11]
B1	binds																		
B2	binds																		
B3		no binding (tested: about 20 nM)	no binding (tested: about 10 nM)	1.22 nM	0.000676 s⁻¹	554000 M⁻¹ s⁻¹	0.13 nM	3.65e-05 s⁻¹	280000 M⁻¹ s⁻¹	1.27 nM	0.00058 s⁻¹	457000 M⁻¹ s⁻¹	0.348 nM	0.00062 s⁻¹	1.78e+06 M⁻¹ s⁻¹	0.105 nM	0.228 nM	6.48 nM	11.5 nM
B4		no binding (tested: about 20 nM)	no binding (tested: about 10 nM)										2.08 nM	0.000298 s⁻¹	143000 M⁻¹ s⁻¹	0.637 nM	1.99 nM		31.5 nM
B5		no binding (tested: about 20 nM)	no binding (tested: about 10 nM)										486 nM	0.0448 s⁻¹	92200 M⁻¹ s⁻¹	0.509 nM	1.46 nM		
B6		no binding (tested: about 20 nM)	no binding (tested: about 10 nM)										38.4 nM	0.000943 s⁻¹	24600 M⁻¹ s⁻¹				
